The source of these data is article PMC6420462.

The target in the test is T1, GluK5-WT (kainate receptor subunit GluK5) (UniProt Q16478).
T1 sequence: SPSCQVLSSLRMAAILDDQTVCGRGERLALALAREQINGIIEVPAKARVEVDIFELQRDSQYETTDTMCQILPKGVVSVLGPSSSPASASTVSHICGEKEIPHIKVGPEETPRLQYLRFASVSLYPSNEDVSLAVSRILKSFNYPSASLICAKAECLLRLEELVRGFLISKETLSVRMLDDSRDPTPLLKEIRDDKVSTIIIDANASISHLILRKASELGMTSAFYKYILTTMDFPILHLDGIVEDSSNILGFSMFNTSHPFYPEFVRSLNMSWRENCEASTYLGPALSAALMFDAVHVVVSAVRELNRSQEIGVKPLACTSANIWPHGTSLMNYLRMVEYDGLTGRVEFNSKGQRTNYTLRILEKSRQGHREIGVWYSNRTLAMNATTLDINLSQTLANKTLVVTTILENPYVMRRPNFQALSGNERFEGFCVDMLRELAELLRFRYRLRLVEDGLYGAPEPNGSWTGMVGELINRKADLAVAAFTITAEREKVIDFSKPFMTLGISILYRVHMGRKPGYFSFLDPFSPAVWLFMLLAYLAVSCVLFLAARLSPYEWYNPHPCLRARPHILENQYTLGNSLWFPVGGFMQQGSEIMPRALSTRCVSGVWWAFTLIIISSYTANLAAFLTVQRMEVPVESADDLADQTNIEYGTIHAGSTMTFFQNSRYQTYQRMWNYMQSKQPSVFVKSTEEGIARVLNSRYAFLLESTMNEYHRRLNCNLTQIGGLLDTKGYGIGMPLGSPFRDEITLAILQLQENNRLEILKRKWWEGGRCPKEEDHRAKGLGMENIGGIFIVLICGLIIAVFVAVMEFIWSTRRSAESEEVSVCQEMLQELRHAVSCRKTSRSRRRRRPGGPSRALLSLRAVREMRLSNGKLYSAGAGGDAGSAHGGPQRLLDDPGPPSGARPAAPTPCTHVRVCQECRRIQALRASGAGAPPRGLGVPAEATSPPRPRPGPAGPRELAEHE

In the case of “GluK2-A487L (from UniProt Q13002 32-908) (receptor)”, the cell surface (biotinylated) GluK2-A487L, % of total, on co-expression with GluK5-WT in HEK293 cells was found to be 14%; the cell surface (biotinylated) GluK5, % of total, on co-expression with GluK2-A487L in HEK293 cells (GluK5 alone not detectable on the surface) turned out to be 14%; the increase in cell surface GluK2-A487L on co-expression with GluK5-WT against the homomeric subunit came to 5 fold.
Consider “GluK2-A487T (from UniProt Q13002 32-908) (receptor)”, for which the cell surface (biotinylated) GluK2-A487T, % of total, on co-expression with GluK5-WT in HEK293 cells was 18% and the cell surface (biotinylated) GluK5, % of total, on co-expression with GluK2-A487T in HEK293 cells (GluK5 alone not detectable on the surface) was 20%.
The substance “GluK2-S689N/N690S (from UniProt Q13002 32-908) (receptor)” came in with a cell surface (biotinylated) GluK2-S689N/N690S, % of total, on co-expression with GluK5-WT in HEK293 cells of 12% and a cell surface (biotinylated) GluK5, % of total, on co-expression with GluK2-S689N/N690S in HEK293 cells (GluK5 alone not detectable on the surface) of 10%.
As to “GluK2-T659V (from UniProt Q13002 32-908) (receptor)”, the cell surface (biotinylated) GluK2-T659V, % of total, on co-expression with GluK5-WT in HEK293 cells came to 28%; the cell surface (biotinylated) GluK5, % of total, on co-expression with GluK2-T659V in HEK293 cells (GluK5 alone not detectable on the surface) was determined as 26%; the increase in cell surface GluK2-T659V on co-expression with GluK5-WT against the homomeric subunit came to 7 fold.
“GluK2-WT (human GluK2a(Q) kainate receptor subunit) (from UniProt Q13002 32-908)”: the cell surface (biotinylated) GluK2, % of total, on co-expression with GluK5-WT in HEK293 cells came to 28% and the cell surface (biotinylated) GluK5, % of total, on co-expression with GluK2-WT in HEK293 cells (GluK5 alone not detectable on the surface) was found to be 27%.
